Assay results as given in publication PMC2292230.
pKd: −log10 of the molar value. Where two headings read alike, the source gives them in different places.

Experiments:
Assay in all cases: SPR
[1] = molecular target: mouse CD1d loaded with α-GalCer (mouse) (UniProt P11609)
[2] = molecular target: human CD1d loaded with α-GalCer, wild type (human) (UniProt P15813)
[3] = molecular target: human CD1d Gln150 to Ala mutant loaded with α-GalCer (human)
[4] = molecular target: human CD1d Arg79 to Ala mutant loaded with α-GalCer (human)
[5] = molecular target: human CD1d Met87 to Ala mutant loaded with α-GalCer (human)
[6] = molecular target: human CD1d loaded with α-GalCer, wild type (human) (UniProt P15813); remark: listed apart in the source
[7] = molecular target: human CD1d Val147 to Ala mutant loaded with α-GalCer (human)
[8] = molecular target: human CD1d Lys86 to Ala mutant loaded with α-GalCer (human)

UniProt P11609, sequence (P11609 22-336): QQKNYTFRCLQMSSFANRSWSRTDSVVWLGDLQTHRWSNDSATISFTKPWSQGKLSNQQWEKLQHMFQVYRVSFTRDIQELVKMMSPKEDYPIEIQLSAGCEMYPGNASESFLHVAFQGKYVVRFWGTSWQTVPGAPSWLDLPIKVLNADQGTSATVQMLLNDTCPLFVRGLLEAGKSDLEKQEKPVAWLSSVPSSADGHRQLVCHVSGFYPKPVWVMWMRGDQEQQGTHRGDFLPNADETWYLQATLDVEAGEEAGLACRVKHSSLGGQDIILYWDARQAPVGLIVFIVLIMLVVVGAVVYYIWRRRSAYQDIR
UniProt P15813, sequence (P15813 20-301): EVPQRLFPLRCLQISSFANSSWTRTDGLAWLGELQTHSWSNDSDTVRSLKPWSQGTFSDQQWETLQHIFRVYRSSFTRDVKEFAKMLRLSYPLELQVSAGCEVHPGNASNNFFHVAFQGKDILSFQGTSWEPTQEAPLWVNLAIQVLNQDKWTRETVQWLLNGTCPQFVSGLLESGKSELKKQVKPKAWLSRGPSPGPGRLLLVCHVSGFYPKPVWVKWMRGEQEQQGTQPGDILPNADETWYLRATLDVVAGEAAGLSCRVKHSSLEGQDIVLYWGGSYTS

Row | Substance | pKd [1] | pKd [2] | other results
1 | human NKT TCR (NKT15) Arg103α to Ala mutant | 5.59 | – | –
2 | human NKT TCR (NKT15) Asn53β to Ala mutant | 5.92 | 6.14 | –
3 | human NKT TCR (NKT15) Glu56β to Ala mutant | 6.14 | – | –
4 | human NKT TCR (NKT15) Gly96αAla mutant | 5.92 | 5.97 | –
5 | human NKT TCR (NKT15) Pro28αAla mutant | 5.32 | 5.26 | –
6 | human NKT TCR (NKT15) Ser30αAla mutant | 5.94 | – | –
7 | human NKT TCR (NKT15) Tyr103βAla mutant | 6.09 | 6.15 | –
8 | human NKT TCR (NKT15), wild type | 6.03 | 6.34 | pKd [3]: 5.60; pKd [4]: 6.46; pKd [5]: 5.10; pKd [6]: 6.24; pKd [7]: 5.44; pKd [8]: 5.55
